Here are results for one substance from PMC3715429.

The target of the assay is EphrinA2 (EphA2) receptor tyrosine kinase (human (endogenous in HFF)) (UniProt P29317). The assay is described as follows: co-IP; lysates of c-Cbl siRNA-transfected HFF cells infected with KSHV for 5 min; IP with anti-EphA2 antibody, Western blot for clathrin; compared with control siRNA cells.

“clathrin heavy chain (from UniProt Q00610 1-1675) (natural protein)” gave a fold reduction of the co-IP in c-Cbl siRNA cells against control siRNA cells of 8 fold.
